# Source: the supplement of paper PMC12455559
# ± gives the standard deviation of the averaged measurements.
# How the values were obtained:
# [1] = melting temperature (DSF); higher = more thermostable
# Method in brief: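 Values are melting temperatures from differential scanning fluorimetry. Candidate enzymes were expressed in E. coli C41(DE3), purified on nickel beads and freed by SUMO protease cleavage. In sealed PCR plates on a Bio-Rad CFX96, 45 μL enzyme (0 to 0.3 mg/mL) was combined with 5 μL 5X Sypro Orange. Fluorescence was recorded from 25 °C for 250 cycles, rising 0.3 °C per cycle at a ramp of 0.3 °C/s.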
# [2] = purified protein yield per well (BCA); higher = higher soluble expression
# Method in brief: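 On an OT-2 robot, lysed cells were processed by binding protein to Ni-charged magnetic beads and releasing it with SUMO protease. Expression took place in E. coli C41(DE3), in 2 mL autoinduction cultures with 100 µg/mL kanamycin, for 2 h at 37 °C followed by 40 h at 18 °C. The Pierce Rapid Gold BCA kit was used to quantify purified protein yield in each well, with values under 25 ug (0.1 mg/mL) below the detection threshold.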
# [3] = PET hydrolysis, aromatic products released after 48 h (umol product/mg enzyme); higher = more PET depolymerization activity
# Method in brief: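 PET hydrolysis activity was taken as the aromatic product in the supernatant and expressed per mg enzyme. This product was measured by absorbance at 260 and 280 nm against buffer blanks. Each reaction held 5 μg (50 μL) of tagless, SUMO-cleaved candidate enzyme purified on nickel beads, plus 3.5 mg amorphous PET film or crystalline PET powder in 450 μL buffer: 50 mM NaCitrate (pH 4.5, 5.5), 50 mM NaPhosphate (pH 6.5, 7.5) or glycine (pH 8.5). Plates were sealed and left 48 h at 40 or 60 °C without shaking.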
# [4] = substrate: aFilm, 40 °C, pH 4.5
# [5] = substrate: aFilm, 40 °C, pH 5.5
# [6] = substrate: aFilm, 40 °C, pH 6.5
# [7] = substrate: aFilm, 40 °C, pH 7.5
# [8] = substrate: aFilm, 60 °C, pH 4.5
# [9] = substrate: aFilm, 60 °C, pH 5.5
# [10] = substrate: aFilm, 60 °C, pH 6.5
# [11] = substrate: aFilm, 60 °C, pH 7.5
# [12] = substrate: cryPow, 40 °C, pH 4.5
# [13] = substrate: cryPow, 40 °C, pH 5.5
# [14] = substrate: cryPow, 40 °C, pH 6.5
# [15] = substrate: cryPow, 40 °C, pH 7.5
# [16] = substrate: cryPow, 60 °C, pH 4.5
# [17] = substrate: cryPow, 60 °C, pH 5.5
# [18] = substrate: cryPow, 60 °C, pH 6.5
# [19] = substrate: cryPow, 60 °C, pH 7.5
sequence,measurement,setting,value
ADNPYQRGPDPTRASVASENGPFANTSVAVPTGYGFNGGRIYYPTDTSQGTFGAIAISPGYTALFSVELAWMGPWLASHGFVVIGIETNSRNDFDTARGTQLLAALDYLTQQSPVRDRVDSSRLAVAGHSMGGGGALSAAMRRSSLKAAVGIAPYSPSSNLATDRVPTMVFSGQADTVVTPSYATGLYNSLPSTTESAYLEVAGADHGFMVGRSNPVLIRTMLPFLKIFIDNDARYSQFLCPLLDTSGVVTYRSTCPLLPTPPTSPTATPTTTPTGPSPTSPPGAASQLVGAQSGRCVDVPNASRANGTRVQLWDCNRQSNQSWTYTSTKQLRVYGDMCLDAAGTGNGAAVQIYGCHGQANQQWNVNSNGTVSNVQSGRCLDVWSTANGAQIQLYDCHGQTNQRFNLTPLA [TEP111],melting temperature,[1],63.1 C
same,purified protein yield per well,[2],245 µg
same,PET hydrolysis,[3]; [4],< 3
same,PET hydrolysis,[3]; [5],< 3
same,PET hydrolysis,[3]; [6],< 3
same,PET hydrolysis,[3]; [7],< 3
same,PET hydrolysis,[3]; [8],< 3
same,PET hydrolysis,[3]; [9],< 3
same,PET hydrolysis,[3]; [10],< 3
same,PET hydrolysis,[3]; [11],< 3
same,PET hydrolysis,[3]; [12],13 ± 1.4
same,PET hydrolysis,[3]; [13],17
same,PET hydrolysis,[3]; [14],15.5 ± 9.2
same,PET hydrolysis,[3]; [15],8.5 ± 12
same,PET hydrolysis,[3]; [16],< 3
same,PET hydrolysis,[3]; [17],5
same,PET hydrolysis,[3]; [18],4.5 ± 0.71
same,PET hydrolysis,[3]; [19],< 3
ADNPYQRGPDPTRNSVAAENGPFANTSVSVPSGNGFNGGRIYYPTDTSQGTFGAIAISPGYTALFSAELAWMGPWLASHGFVVIGIETNSRNDFDTARGTQLLAALDYLTQQSTVRNRVDPNRLAVAGHSMGGGGALSAAMRRPSLKAVAGITPYSPSSNLANDRVPTMIISGQADTVVTPSYALGLYNSIPATTESVYLEVAGGDHGFMVGRSNPVLIRTMLPFLKTFVDNDARYTQFLCPLVDNSGVVTYRNTCPLLPPPTGTPTPTPTTPGPTTPPPTTPPPGSASEIVGTQSGRCVDVPNSSRTNGTRVQLYDCNRQTNQTWTYNTSTKQLRVYGDMCLDAAGTGNSAAVQIYACHSQTNQQWNINTNGTISGVQSGRCLDAWNTTNGAQIQLYDCHGQTNQQFRLAAR [TEP115],melting temperature,[1],60.4 C
same,purified protein yield per well,[2],113 µg
same,PET hydrolysis,[3]; [12],4
same,PET hydrolysis,[3]; [13],8
same,PET hydrolysis,[3]; [14],7
same,PET hydrolysis,[3]; [15],3
same,PET hydrolysis,[3]; [16],< 3
same,PET hydrolysis,[3]; [17],< 3
same,PET hydrolysis,[3]; [18],< 3
same,PET hydrolysis,[3]; [19],< 3
ADNPYQRGPDPTRSSVAAVNGPFANTSVAVPTGYGFNGGRIYYPTDTSQGTFGAIAISPGYTALFSVELAWMGPWLASHGFVVIGIETNSRNDFDTARGTQLLAALDYLTQQSPVRDRVDPNRLAVSGHSMGGGGALSAAIRRSSLKAVVGIAPYSPSSNLANDRVPTMVFAGQADTVVTPSYATGLYNSLPATTESAYLEVAGADHGFMVGRSNPVLIRTMLPFLKMFVDNDARYSQFLCPLADNSGVVSYRSTCPLLPTTPTTPPPTPSDTPPPTPSGTPTTPPTTGPPGTASLVVGAQSGRCLDVPNASRANGTRVQLWDCNRQANQQWTYTSTRQLRVYGDMCLDAAGSGNGAAVQIYGCHGQPNQQWTVNANGTISGVQSGRCLDVWSTANGAQVQLYDCHGQTNQRFTLTPVA [ESM080],melting temperature,[1],61.6 C
same,purified protein yield per well,[2],56.6 µg
same,PET hydrolysis,[3]; [12],9
same,PET hydrolysis,[3]; [13],18
same,PET hydrolysis,[3]; [14],9
same,PET hydrolysis,[3]; [15],4
ADNPYQRGPDPTRSSVAAVNGPFANTSVAVPTGYGFNGGRIYYPTDTSQGTFGAVAISPGYTALFSVELAWMGPWLASHGFVVIGIETNSRNDFDTARGTQLLAALDYLVQQSPVRDRIDPNRLAVSGHSMGGGGALSAALRRPALKAAVGIAPYSPSSNLANDRVPTMVFAGQADTVVTPSYATGLYNSLPTTTESAYLEVAGADHGFMVGRSNPVLIRTMLPFLKMFVDNDARYSQFLCPLADNSGVVSYRSTCPLLPPTSTTPPPIPSDTPPPIPTTPPQTTPPPSNPPGAASLIVGAQSNRCLDVPNASRANGTRVQLWDCNRGTNQSWTYTTNKQLRVYGDMCLDAAGSGNGAAVQIYGCHSQTNQQWNVNANGTISSVQSGRCLDVWSTANGAQVQLYDCHGQTNQRFTLTPLT [ESM101],melting temperature,[1],58.6 C
same,purified protein yield per well,[2],149 µg
same,PET hydrolysis,[3]; [12],7
same,PET hydrolysis,[3]; [13],19
same,PET hydrolysis,[3]; [14],8
same,PET hydrolysis,[3]; [15],4
same,PET hydrolysis,[3]; [16],< 3
same,PET hydrolysis,[3]; [17],< 3
same,PET hydrolysis,[3]; [18],< 3
same,PET hydrolysis,[3]; [19],< 3
ADNPYQRGPDPTRTSVAAVNGPFANTSVSVPTGYGFNGGRIYYPTDTSQGTFGAIAISPGYTALFSAELAWMGPWLASHGFVVIGIETNSRNDFDTARGTQLLAALDYLTQQSPVRDRVDPNRLAVSGHSMGGGGALSAAIRRSSLKAVVGIAPYSPSSNLANDRVPTMIFSGQADTVVTPSYATGLYNSLPATTESVYLEVAGADHGFMVGRSNPVMIRTMLPFVKMFIDNDTRYSQFLCPLLDSSGVVTYRSTCPLLPPAPTTPPPTGTPTPTPSSNPTTPPTTPPSTPTA [ESM061],melting temperature,[1],62.8 C
same,purified protein yield per well,[2],408 µg
same,PET hydrolysis,[3]; [4],< 3
same,PET hydrolysis,[3]; [5],< 3
same,PET hydrolysis,[3]; [6],< 3
same,PET hydrolysis,[3]; [7],< 3
same,PET hydrolysis,[3]; [8],< 3
same,PET hydrolysis,[3]; [9],< 3
same,PET hydrolysis,[3]; [10],< 3
same,PET hydrolysis,[3]; [11],< 3
same,PET hydrolysis,[3]; [12],11 ± 2.8
same,PET hydrolysis,[3]; [13],23 ± 1.4
same,PET hydrolysis,[3]; [14],5
same,PET hydrolysis,[3]; [15],< 3
same,PET hydrolysis,[3]; [16],< 3
same,PET hydrolysis,[3]; [17],< 3
same,PET hydrolysis,[3]; [18],< 3
same,PET hydrolysis,[3]; [19],< 3
ADNPYQRGPDPTRTSVAAVNGPFANTSVSVPTGYGFNGGRIYYPTDTSQGTFGAIAISPGYTALFSAELAWMGPWLASHGFVVIGIETNSRNDFDTARGTQLLAALDYLTQQSPVRDRVDPNRLAVSGHSMGGGGALSAAIRRSSLKAVVGIAPYSPSSNLANDRVPTMVFSGQADTVVTPSYATGLYNSLPATTESVYLEVAGADHGFMVGRSNPVMIRTMLPFVKMFIDNDTRYSQFLCPLLDSSGVVTYRSTCPLLPPAPTPSNTGTTPPTTPPVTPTTPPSSASEIVGVQSGRCIDVPNASRNNGTRVQLYDCNRQANQSWTYTSGKQLQVYGNMCLDAAGSGNGAAVQIYSCHSQTNQQWNVNSNGTISGVQSGRCLDVWSTANGAQIQLYDCHGGANQRFNLVPRT [ESM058],melting temperature,[1],59.5 C
same,purified protein yield per well,[2],281 µg
same,PET hydrolysis,[3]; [4],< 3
same,PET hydrolysis,[3]; [5],< 3
same,PET hydrolysis,[3]; [6],< 3
same,PET hydrolysis,[3]; [7],< 3
same,PET hydrolysis,[3]; [8],< 3
same,PET hydrolysis,[3]; [9],< 3
same,PET hydrolysis,[3]; [10],< 3
same,PET hydrolysis,[3]; [11],< 3
same,PET hydrolysis,[3]; [12],5.5 ± 0.71
same,PET hydrolysis,[3]; [13],12.5 ± 0.71
same,PET hydrolysis,[3]; [14],11
same,PET hydrolysis,[3]; [15],4.5 ± 0.71
same,PET hydrolysis,[3]; [16],< 3
same,PET hydrolysis,[3]; [17],< 3
same,PET hydrolysis,[3]; [18],< 3
same,PET hydrolysis,[3]; [19],< 3
